According to patent US20150232576A1:
Blank lines part the entries; values can stand above or below the substance they belong to.

How the values were obtained:
[1] = molecular target: Phosphorylated His-p38 (p38 MAP kinase) (UniProt Q16539); experiment: BLI, immobilised p38, 696 nM nNOS analyte, compared with eNOS
[2] = molecular target: Phosphorylated His-p38 (p38 MAP kinase) (UniProt Q16539); experiment: refers to the biosensor experiments described above
[3] = molecular target: Phosphorylated His-p38 (p38 MAP kinase) (UniProt Q16539); experiment: BLI, immobilised p38, from the pseudo first order rate at 232 nM eNOS
[4] = molecular target: Phosphorylated His-p38 (p38 MAP kinase) (UniProt Q16539); experiment: optical biosensing (BLI), summary statement
[5] = molecular target: Phosphorylated His-p38 (p38 MAP kinase) (UniProt Q16539); experiment: BLI, immobilised p38, k2/k1
[6] = molecular target: Phosphorylated His-p38 (p38 MAP kinase) (UniProt Q16539); experiment: BLI, biotinylated p38 on streptavidin sensors, 696 nM eNOS analyte
[7] = molecular target: Phosphorylated His-p38 (p38 MAP kinase) (UniProt Q16539); experiment: BLI, biotinylated p38 on streptavidin sensors, 696 nM eNOS, 300 s dissociation in buffer
[8] = molecular target: Phosphorylated His-p38 (p38 MAP kinase) (UniProt Q16539); experiment: BLI, immobilised p38, eNOS analyte, two-component sequential model

Chain of endothelial nitric oxide synthase (eNOS), purified, unphosphorylated (P29473 whole entry): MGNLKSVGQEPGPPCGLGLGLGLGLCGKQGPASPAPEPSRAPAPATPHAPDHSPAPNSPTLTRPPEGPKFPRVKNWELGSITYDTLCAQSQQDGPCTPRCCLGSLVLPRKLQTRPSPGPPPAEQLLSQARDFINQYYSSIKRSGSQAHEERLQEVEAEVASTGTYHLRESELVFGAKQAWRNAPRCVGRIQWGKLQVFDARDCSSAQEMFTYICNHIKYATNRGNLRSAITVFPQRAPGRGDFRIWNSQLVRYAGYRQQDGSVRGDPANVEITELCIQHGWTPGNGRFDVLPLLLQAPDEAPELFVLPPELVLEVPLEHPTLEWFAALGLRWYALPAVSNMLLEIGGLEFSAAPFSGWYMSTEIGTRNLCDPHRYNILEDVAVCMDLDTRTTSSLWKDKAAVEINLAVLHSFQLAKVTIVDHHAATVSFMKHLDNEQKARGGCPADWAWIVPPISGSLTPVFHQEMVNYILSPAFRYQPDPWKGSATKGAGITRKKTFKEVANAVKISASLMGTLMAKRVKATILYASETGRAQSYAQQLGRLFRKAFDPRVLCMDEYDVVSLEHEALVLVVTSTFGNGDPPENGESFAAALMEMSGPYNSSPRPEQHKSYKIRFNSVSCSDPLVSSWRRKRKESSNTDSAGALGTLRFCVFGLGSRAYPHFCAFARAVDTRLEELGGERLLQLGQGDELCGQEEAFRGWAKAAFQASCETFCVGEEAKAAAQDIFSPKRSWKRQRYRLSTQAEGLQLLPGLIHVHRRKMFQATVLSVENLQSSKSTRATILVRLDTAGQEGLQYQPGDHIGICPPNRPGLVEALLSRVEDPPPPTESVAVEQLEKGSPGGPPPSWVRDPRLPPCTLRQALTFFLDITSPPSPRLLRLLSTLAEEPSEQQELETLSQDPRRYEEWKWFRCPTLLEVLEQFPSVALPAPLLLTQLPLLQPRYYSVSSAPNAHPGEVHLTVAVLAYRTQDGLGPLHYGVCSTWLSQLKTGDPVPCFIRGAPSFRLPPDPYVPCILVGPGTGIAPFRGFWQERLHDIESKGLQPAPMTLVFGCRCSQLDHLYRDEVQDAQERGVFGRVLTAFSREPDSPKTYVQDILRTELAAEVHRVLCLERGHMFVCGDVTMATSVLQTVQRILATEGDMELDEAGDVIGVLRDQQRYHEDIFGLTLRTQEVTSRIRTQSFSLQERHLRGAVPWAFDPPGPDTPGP

fold slower binding than eNOS [1]: 30 fold
Substance: neuronal nitric oxide synthase (nNOS) (from UniProt P29476 1-1429) (enzyme)

Kd [2]: 0.05 to 0.1 nM
kon [3]: 130000 M⁻¹ s⁻¹
Kd [4]: 100 nM
kon [4]: 150000 M⁻¹ s⁻¹
Kd [5]: 80 nM
half time of the initial association component [6]: 10 s
percent of the rapid phase binding dissociated in buffer [7]: 25%
k1 (pseudo first order forward rate, first step) at 26 nM eNOS [8]: 0.0025 s⁻¹
k1 (pseudo first order forward rate, first step) at 77 nM eNOS [8]: 0.0008 s⁻¹
k1 (pseudo first order forward rate, first step) at 232 nM eNOS [8]: 0.03 s⁻¹
k1 (pseudo first order forward rate, first step) at 696 nM eNOS [8]: 0.1 s⁻¹
k2 (reverse rate, first step) at 26 nM eNOS [8]: 0.01 s⁻¹
k2 (reverse rate, first step) at 77 nM eNOS [8]: 0.01 s⁻¹
k2 (reverse rate, first step) at 232 nM eNOS [8]: 0.01 s⁻¹
k2 (reverse rate, first step) at 696 nM eNOS [8]: 0.01 s⁻¹
k3 (forward rate, second step) at 26 nM eNOS [8]: 0.0002 s⁻¹
k3 (forward rate, second step) at 77 nM eNOS [8]: 0.006 s⁻¹
k3 (forward rate, second step) at 232 nM eNOS [8]: 0.0002 s⁻¹
k3 (forward rate, second step) at 696 nM eNOS [8]: 0.006 s⁻¹
k4 (reverse rate, second step) at 26 nM eNOS [8]: 0.001 s⁻¹
k4 (reverse rate, second step) at 77 nM eNOS [8]: 0.001 s⁻¹
k4 (reverse rate, second step) at 232 nM eNOS [8]: 0.001 s⁻¹
k4 (reverse rate, second step) at 696 nM eNOS [8]: 0.001 s⁻¹
Substance: endothelial nitric oxide synthase (eNOS), purified, unphosphorylated (from UniProt P29473 1-1205) (enzyme)
